Consider 23 sequences from a protein production outcome set (Wang et al. 2014).

This data set is described as follows: label from the status in PepcDB records.
For “MIRFYMSLSVVKHTILYLCFIFLLLYLKKRYPDNVIIGFFLKIRWCFINSMLHLHFIAIWIAGYRNRCSNSSWNFGYFGCCVETQAKVGRTATNLLLTES”, the protein production result was “failed”.

Regarding “MNGVELTLTGAEVLLPGGPARRDLCLSGGQVVDAPAGRQVDLSGYLVLPGIVDLHGDGFERHMAPRRGAMKEMGEGVVAAEAELAANGITTAVLAQFWSWEGGLRGPDFAAGVFQAIRQVQGSLVTDLIPQLRFETHLLEDYAALPDRLAEWQVPYVVFNDHLPHDRLAEGRKPPRLAGQALKAGRSPEAHLALLQALHANGPQVPAALDKLCAELHRRGVRMGSHDDHSAEDCATGQGRGLTISEFPETLEAAEATRASGGHVILGSPNVVRGGSHKGNVSALDLITMGLCDALASDYHYPSPRRAALMLVRTGLLDLAAAWALVSSGPARVLGLDDRGELAPGKRADLVILDAQSHRVAATFAAGRVSYMSGDVATRFLA”, the protein production entry is given as “failed”.

“ARGHRHTCKVMVLKEEAAGSERALALDMREGQRVFHSLIVHFENDIPVQIEDRFVNAQVAPDYLKQDFTLQTPYAYLSQVAPLTEGEHVVEAILAEADECKLLQIDAGEPCLLIRRRTWSGRQPVTAARLIHPGSRHRLEGRFTK”: the protein production entry is given as “not failed”.

As for “MAVGKKDIECPPYAEGTPLSDADIKEKRVTYVEDHPDIRYSWTAGQAISKFLNGLKEGKILGVKCNKCGRVMVPPRMFCELCYKPIDGWVELKDTGTVETFSISYIDPDARPLPEPVIVAVISIDGASPHMGIMHILDEVKPEDVYIGMKVKAVWKSEEEREGAITDIKYWKPLEGLEHHHHHH”, the protein production result was “failed”.

For the sequence “MKEITIALVGQPNVGKSSLINALSNAHLKVGNFAGVTVDKMEVGLIHKEHQITIIDLPGTYALNDFTTEEKVTKDFLEKGQYDLILNVVDSTNLERNLALSAQLLDTNKKMLLALNMWDEAQKEGIKINTEKLSKELGVVCVPTSARSKEDRLNTELLLDEIVRLYSQNTTNNENIKVPSQSFKESLKYSQSAQRIAQLVISENQQNASFEHTYKIDKILMHKRYGIFIFLGFMFIIFSLSFLIGGGVQKALETGFKFLSDGIKENVANEDLASLVGDGIIGGVGATVSFLPLIVVLYFGISLLETTGYMSRVAFLLDGILHKFGLHGKSFIPLITGFGCSVPAYMATRTLQNYNERLITLFVIGFMSCSARLPIYVLFVGSFFPSSSAGFVLFCIYILGAVVALVMAKLLKLSVFKGQTESFIMEMPKYRFPSWRMVYFSIYTKSLSYLKKAGTYILVGAILIWFMSQYPKSDAAMKAYKQESLLVNKDTTLSSEAKEEKLKELKTELDKKNLKNSIVGRGGAYLEKVFSPMDFDWRLSVSLVTGFMAKEVVVSTLGVLFSLGDQNEKSDAFRGILRKEVSVPSGIAFIVFVMFYIPCFAATITFGREAGGIKFVAYLFIFTTVVAYAFSLIAFYATQILV”, the protein production result is “failed”.

Take “FLVTPEGRRIAYRLTDGEGPAVVFCGGFKSDMEGTKALHLQAWAERTGRAFLRFDYSGHGQSEGAFLDGSIGDWFEDARAVCGLLAGPLLLVGSSMGGWISLLLAREMGARVAGLVGIAAAPDFTEDSMWGGFNAAQREALQRAGQVILPSDYSEEPYIITRRLIEEGRRRLVLRDPLELGFPVRLLQGTADVDVPPSVALRLLDHATGPDIRLTLVKGADHRFSTPECLRMIEQAVEELL”: the protein production entry is reported as “failed”.

On to “MEVKKELNAQSGKKSLMTIENRKRLLLTGVSEVVNFNDEQIVLNTNLGSLIIKGRELKMNKLDVQNGDIAITGTINAVYSGNESSNKKDSIISRLFKLEHHHHHH”, for which the protein production result is listed as “failed”.

In the case of “MLISAIIGGVEYINLYRFPEIPLVGFTLIGVVLSIFLGFKNTACYDRWWEARKLWGVLIATSRHFDRDCRILTQARRERVIQHVIVFANVLRDRLRRQTANPTELIQTSGMSQQALTQLYQQNNAPQYTLSLIQWELLQALKEGEISDIIYAQMNKNVADLSVVQTGCDRIANTPIPFAYSVLLNRTVYFFCFMLPFSLGSLLGLATPLLVGILAYTFLGLDALSTEIEEPFGTQSNDLPLDAMVRSIEIELLGTLGKPTPPPIQAQDNNLL”, the protein production entry is given as “failed”.

In the case of “MILGIDIGGANTKITELHENGEFKVHHLYFPMWKNNDKLAEVLKTYSKDISHVALVTTAELADSYETKKEGVDNILNAAESAFGSNISVFDSDGNFISLEGAKTNYMKVSASNWCGTAKWVSKNIEENCILVDMGSTTTDIIPIVDGKVVAEKTDLERLMNHELLYVGTLRTPISHLGNTILFKGVNTNVSSEYFAITADISVVLEKVTTEEYTCDTPDGKGTDKRSSLVRISKVLCSDLDQISEIDAENIAKTYYELWKELILENVKKVAEKYGSKKVVITGIGENILKDALGDFEVISVAERYGKDVSLATPSFAVAELLKNELLEHHHHHH”, the protein production result is “not failed”.

With “MVNTNLEELRTQVDQLNIDLLELISKRANLVQEIGKIKGTQGSLRFDPLREREMLNTILAANEGPFEDSTVQKLFKEIFKAGLELQEEDHSKALLVSRKNKKEDTIVTVKGLPIGNGEPVFVFGPCSVESYEQVAAVAESIKAKGLKLIRGGAFKPRTSPYDFQGLGLEGLKILKRVSDEYGLGVISEIVTPADIEVALDYVDVIQIGARNMQNFELLKAAGRVDKPILLKRGLSATIEEFIGAAEYIMSQGNGKIILCERGIRTYEKATRNTLDISAVPILKKETHLPVMVDVTHSTGRKDLLLPCAKAALAIEADGVMAEVHPDPAVALSDSAQQMDIPEFEEFWNAILASNLVPHKIK”, the protein production entry was “not failed”.

Regarding “MRIFFLIFLLAYVGGNVYIFIRTLQMLSGFSLAMKILLSVIYWLVAFSLVIAMLTRHIDMPVILSKSMFHIGSVWLVFTLYMIFALLIADVTKIFVPSLNHGFYYALGATCCLLLYGYYNYRHPQVNKIDVSLDKPIEGNGINIVAVSDVHLGYGTGKAMLKEYVDMINAQHPDLILIGGDLIDNSLTPLYKENMAEELAQLKAPLGIYMVPGNHEYISGIDESVRFLKDTPIQLLRDSVVTLPNGVQIIGRDDRSNRSRHSLPTLLKQADRSKPIILLDHQPYNLAKTDSLGIDLQFSGHTHHGQIWPISWVTDRIYEQSHGYRKWSQSHIYVSSGLSLWGPPFRIGTNSDMAVFHLNQMAK”, the protein production result is on record as “not failed”.

For “MQDFKKLPTVLTAEELIDKIFRRAARVEGRNPKEKALNKLATISNVSRDYFGKIIGAHPSYENLPDFYREMVDVVVGIRQLKKSLVALKWADGMIQKVVSRAVREVKGGKNPSAVVKSAYGRVASIIEQIDDELRFLNDAKNRMREIPILQDLPTIVVAGYPNVGKSSLVARISTVKPEVASYPFTTKKINLGFAEFAGKRVQIIDTPGLLDRPLSKRNRIERRAVLALKHLADIILFVIDPTETCGYSLEKQLSLLEEIKGYFAKPTVEVYSKADMHDRRDRQAYSAVTGEGIDELIKEIEKMVKIHSQTSTVIAPSGQTSTQEQHSLEHHHHHH”, the protein production entry is “failed”.

As for “MPHLRTILPQLRNNWFFIALLTSCGLWCFFAPSLLGALLFSITVIRIVCTKSFPVILGGFLCSFLIVGGILIFQWLKPVSLLPKEVRLSGQLTILPDEIQVDGDQVKFPANWIVKGKRQKVMAFYQLKSVKEKQQWQQLTTTIQATAVGILDSPQGQTNKNGFNYQLFLKNQGIEAILFIEEIGQPRSFFSWRFKEIISGWRKWAMVHIQKNFAETSAMYMNALLLGFRNEEFAEISDKFSALGILHLFSLSGMHVSFFLRLFRLLMLRIARRTQESYFLWQCGFSLIYAGLTGFSVSVMRALLQTNLNTFNRRFNWQVPALDCWSLTLLVHLIVQPTLFFSVGGQFSYLLSFVLLFLEQTLVGYSSPFIKNCLGSFLLAVASLPILVQSFYEWPLLGSFLTFLLLPIFERFLLPLLTLSFFLVIIMPARYLAALLEPLFLTMNGLFEWVLVHLNPKLTIGYLNSWIQISLLLLIGFSMIYLADKSKKIFFSIGLLIVLINSKYLSPIGIVAMIDVGQGDSLFIQAPFHRKNTLIDTGGRLSFGKEAWRQRKNSRSGAEYSVIPFLKSQGVKRLDEVIITHAHEDHFGDLLAIAQKVPISVLYFPKGAAEANFSFRQVLKQLQKSGTDCRPILAPKRINGPVSFQILSPNKSSIGGNNDSIVFSTQLGGRHFLFTGDLEAEGEEQVLARYPQLKIDILKVGHHGSKTSSTKRFIKQLNPREALISAGLNNRFKHPHQETLATLEEQKINYYRTDLQGMIYYQWLPWQGLSKAKFVKEQD”, the protein production entry is recorded as “failed”.

Turning to “MNSSIVNAGIDPQVRESLKSFVGEAIDYANTSGKDAAIAKFNDQNGTFVRGNLYVYAFDYNGTTLALPYQPQLIGTDLSGLQDPYGVNYTKVEIFLEHHHHHH”, the protein production entry is listed as “failed”.

Consider “QAQITGRPEWIWLALGTALMGLGTLYFLVKGMGVSDPDAKKFYAITTLVPAIAFTMYLSMLLGYGLTMVPFGGEQNPIYWARYADWLFTTPLLLLDLALLVDADQGTILALVGADGIMIGTGLVGALTKVYSYRFVWWAISTAAMLYILYVLFFGFTSKAESMRPEVASTFKVLRNVTVVLWSAYPVVWLIGSEGAGIVPLNIETLLFMVLDVSAKVGFGLILLRSRAIFGEAEAPEPSAGDGAAATS”, for which the protein production entry is reported as “not failed”.

For “MFKSPENDSLVSAVFDSSPIGIQIIDLETGMREKINQTACVLLGDTKDNLMAKSVFEDCTWLGKDKFLFVIERLKENKTLKNHIVQFENHQGNELTISYDISEFKYRSKRLVTVSMNDVT”, the protein production result is given as “failed”.

Regarding “YYNPVRYPERTKERRDLVLRLLMQQNMLTSQQYEQAVSRPLDTQSKPRIASRQPAYFQQLNIELKEKVGDRFKAETGL”, the protein production result is on record as “failed”.

Consider “PINVRVTTMDAELEFAIQPNTTGKQLFDQVVKTVGLREVWFFGLQYVDSKGYSTWLKLNKKVTQQDVKKENPLQFKFRAK”, for which the protein production entry is “failed”.

“KFDSDIDEVVYGSRLIGSDPDLVLHGGGNTSVKTTERDHAGRIISVLRVKNSGSNLGTIDSRGFTGIRMDDALAAAKIDKMTDEAMVDYLKKSMVNPSEPSPSVETFLHAFLPYKFVMHSHADAILSITNTDLPSDQIAKILGNVVVLPYIPPGFTLAKEVMNCFKKGIDGIVLRKHGLLTFGDTGKEAYDRHINIVSRAENFIREKTDGK”: the protein production result was “not failed”.

Regarding “MSELGNRAKDQKKIYQRWAPVYDRVYRGILRDGHRKLAGLAAAAGTDILEIGTGTGLTLAHYPSRCRVTGIDISEHMIARAREKVRRENLRHVRALEVMDAHVLRFADKSFDVVCLPFVITLIPEPERALDECARVLRPGGEIILASKLGDGAGLQGAIEAAVAPLVRHIGWSSAFRIHRIVAWAERRGDFSTAEILPVFPNGFFKIVRLKQRGFSA”, the protein production entry was “failed”.

On to “MMGSVLPAEALVLKTGLKAPGLALAEVITSDILHSFLYGRWRNVLGEQLFEDKSHHASPKTAFTAEVLAQSFSGEVQKLSSLVLPAEVIIAQSSIPGEGLGIFSKTWIKAGTEMGPFTGRVIAPEHVDICKNNNLMWEVFNEDGTVRYFIDASQEDHRSWMTYIKCARNEQEQNLEVVQIGTSIFYKAIEMIPPDQELLVWYGNSHNTFLGIPGVPGLEEDQKKNKHEDFHPADSAAGPAGRMRCVICHRGFNSRSNLRSHMRIHTLDKPFVCRFCNRRFSQSSTLRNHVRLHTGERPYKCQVCQSAYSQLAGLRAHQKSARHRPPSTALQAHSPALPAPHAHAPALAAAAAAAAAAAAHHLPAMVL”, for which the protein production entry was “failed”.

On to “RSFGLIIPDLENTSYARLAKLIEQNSRKAGYQILIGCSDDDPETEKKVAEALISRRIDALFVASGMPSANEYYLKLQNSGTPVIALDRPMDDEHFCCVISEDFDAAFELTESVLSPEIKTIGLIGALQDLQVSKERELGFRSACQKDDTAMTVGYGLHFSREEGKKVLDKWVQADSLPDAIVTTSYTLLEGVLDVMLEKPELMSQVRLATFGDNRLLDFLPVKINSLPQQFELIADSAMELALNASAKRYKPGVELIPRKIVKRQ”, for which the protein production result is given as “failed”.

As to “MSLATEGNGKVIHLTKAEFLAKVYNFEKNPEEWKYEGDKPAIVDFYADWCGPCKMVAPILDELAKEYDGQIVIYKVDTEKEQELAGAFGIRSIPSILFIPMEGKPEMAQGAMPKASFKKAIDEFLLKKEGHHHHHH”, the protein production result is “not failed”.
